Results from patent US20240376225A1 (CHILDREN S MEDICAL CENTER, published 2024).

Assays:
[1] = target: cyno CD21 protein (cynomolgus monkey); assay: SPR (Biacore)
[2] = target: T1, human CD21 on Raji B cells or primary B cells (human, UniProt P20023 21-1033); assay: Raji B cell binding, flow cytometry
T1 construct: whole, on cells; also called cell-surface human CD21; Raji cells
T1 sequence (looked up): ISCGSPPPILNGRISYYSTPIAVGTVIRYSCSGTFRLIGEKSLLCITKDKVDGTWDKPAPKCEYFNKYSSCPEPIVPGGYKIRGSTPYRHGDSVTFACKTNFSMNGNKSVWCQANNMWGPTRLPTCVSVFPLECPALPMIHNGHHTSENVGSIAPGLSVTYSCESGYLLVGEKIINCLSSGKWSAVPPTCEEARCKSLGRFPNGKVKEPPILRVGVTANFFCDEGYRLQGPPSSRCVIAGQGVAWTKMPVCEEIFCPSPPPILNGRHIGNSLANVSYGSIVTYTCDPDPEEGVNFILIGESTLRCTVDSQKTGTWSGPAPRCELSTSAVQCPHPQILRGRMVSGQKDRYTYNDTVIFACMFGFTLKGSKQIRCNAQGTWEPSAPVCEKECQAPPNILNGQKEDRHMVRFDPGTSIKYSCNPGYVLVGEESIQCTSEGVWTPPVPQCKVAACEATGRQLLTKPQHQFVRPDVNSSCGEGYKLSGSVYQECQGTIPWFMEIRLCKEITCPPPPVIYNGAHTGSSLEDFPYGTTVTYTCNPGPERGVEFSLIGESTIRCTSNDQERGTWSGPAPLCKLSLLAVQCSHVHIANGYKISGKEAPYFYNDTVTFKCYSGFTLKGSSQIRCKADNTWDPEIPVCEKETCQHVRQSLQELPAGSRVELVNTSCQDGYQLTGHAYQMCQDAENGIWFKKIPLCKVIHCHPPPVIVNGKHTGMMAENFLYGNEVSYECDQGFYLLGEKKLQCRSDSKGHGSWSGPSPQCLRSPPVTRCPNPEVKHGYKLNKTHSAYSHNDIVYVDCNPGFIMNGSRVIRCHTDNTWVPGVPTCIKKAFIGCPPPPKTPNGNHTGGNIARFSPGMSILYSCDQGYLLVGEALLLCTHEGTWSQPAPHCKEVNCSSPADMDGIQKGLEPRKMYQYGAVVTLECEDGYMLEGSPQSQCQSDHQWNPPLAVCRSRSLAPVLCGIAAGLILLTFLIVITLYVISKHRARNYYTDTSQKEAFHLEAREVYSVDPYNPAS
Method: (§1) Ab15 binding to cell-surface human and cyno CD21 was determined using human Raji B cells (ATCC, Manassas, VA) and CHO cells over expressing cyno CD21. Cells expressing cyno CD21 were generated by transfecting CHO cells with a mammalian expression construct encoding full-length cyno CD21. Stable cell clones were selected on hygromycin-B, and their expression of cyno CD21 confirmed by flow cytometry.
(§2) For the Ab15 binding experiment, cells were dissociated with cell dissociation buffer (Sigma) and blocked on ice with PBS+3% bovine serum (BS)+human Fc blocker. Cells were stained on ice for 1 hr with 3-fold serially diluted Ab15 (starting from 50 nM), then washed with cold PBS. Secondary antibody (anti-human IgG-PE, 1:500 dilution, Invitrogen, cat. #H10104) was added on ice for 1 hr. Cells were washed with and resuspended in PBS, and analyzed for Ab15 binding on a BD Fortessa instrument.

[3] = target: T1, human CD21 on Raji B cells or primary B …; assay: flow cytometry, competition with biotinylated human C3d on Raji B cells
Method: (§3) To measure neutralization of C3d binding to cell-surface CD21 by flow cytometry, human Raji cells and CHO-cyno CD21 cells were used. Cells were dissociated with cell dissociation buffer (Sigma) and blocked on ice with PBS+3% bovine serum albumin (BSA)+human Fc blocker. In a 96-well plate, […] were incubated for 0.5 hr on ice with 3-fold serially diluted Ab15 (starting from 100 nM), then with 4.5 ug/ml biotinylated human C3d. SA-BV451 conjugate (BD Bioscience, cat. #563529) was then added at 0.5 ug/ml for 1 hr on ice. Cells were washed again with cold PBS, resuspended in PBS and analyzed for human C3d binding on a BD Fortessa™.

cyno CD21 on CHO cells [4] = target: T2, cyno CD21 on CHO cells (cynomolgus monkey, UniProt A0A2K5URG6 21-1034); assay: flow cytometry, competition with biotinylated human C3d on CHO-cynoCD21 cells
T2 construct: whole, on cells; also called CHO-cyno CD21 cells; CHO-cynoCD21
T2 sequence: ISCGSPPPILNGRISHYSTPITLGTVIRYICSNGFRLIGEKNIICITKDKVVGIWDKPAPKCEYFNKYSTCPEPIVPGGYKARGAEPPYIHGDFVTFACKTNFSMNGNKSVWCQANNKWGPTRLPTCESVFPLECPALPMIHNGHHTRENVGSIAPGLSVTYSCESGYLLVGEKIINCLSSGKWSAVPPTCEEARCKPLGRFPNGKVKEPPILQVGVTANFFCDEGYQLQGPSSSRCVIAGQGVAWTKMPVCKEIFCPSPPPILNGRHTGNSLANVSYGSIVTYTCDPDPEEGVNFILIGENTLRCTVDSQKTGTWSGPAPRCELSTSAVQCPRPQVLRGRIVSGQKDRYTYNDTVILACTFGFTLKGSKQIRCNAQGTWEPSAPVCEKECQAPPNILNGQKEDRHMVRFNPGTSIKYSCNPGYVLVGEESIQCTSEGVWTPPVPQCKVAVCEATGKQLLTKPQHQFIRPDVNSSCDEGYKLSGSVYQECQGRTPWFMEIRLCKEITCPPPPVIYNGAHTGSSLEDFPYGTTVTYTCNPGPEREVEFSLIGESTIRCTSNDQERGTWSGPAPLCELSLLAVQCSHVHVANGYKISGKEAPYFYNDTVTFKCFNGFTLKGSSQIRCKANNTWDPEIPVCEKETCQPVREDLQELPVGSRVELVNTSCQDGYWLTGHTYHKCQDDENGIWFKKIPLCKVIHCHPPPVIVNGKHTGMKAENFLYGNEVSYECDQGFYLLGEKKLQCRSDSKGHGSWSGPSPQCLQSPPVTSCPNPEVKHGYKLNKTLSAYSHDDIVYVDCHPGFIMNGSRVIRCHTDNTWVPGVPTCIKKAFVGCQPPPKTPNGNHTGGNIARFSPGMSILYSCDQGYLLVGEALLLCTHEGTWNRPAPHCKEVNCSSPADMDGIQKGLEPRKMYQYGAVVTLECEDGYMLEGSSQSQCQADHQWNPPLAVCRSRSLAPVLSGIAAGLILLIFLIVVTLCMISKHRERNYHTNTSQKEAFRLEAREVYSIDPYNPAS
Method: as §3

cyno CD21 on CHO cells [5] = target: T2, cyno CD21 on CHO cells; assay: flow cytometry, Ab15 titrated on CHO cells overexpressing cyno CD21, anti-human IgG-PE, Geo MFI
Method: as §1, §2

B1: Ab15 (antibody, human IgG1, kappa, V domains shown)
VH: QVQLVQSGAEVKKPGSSVKVSCKASGGTFSSYAISWVRQAPGQGLEWMGRIIPILGIANYAQKFQGRVTITADKSTSTAYMELSSLRSEDTAVYYCAREDDSSGYYQDWGQGTLVTVSS
VL: EIVMTQSPATLSLSPGESATLSCRAGQSINSHLAWYQQKPGQSPSLLIYDASTRATGVPARFSGSGFGTEFTLTISSLQSEDFAVYFCQQYEYWYTFGQGTKLEIKR
notes: Tb-labeled in the HTRF assay; also called 36C01; SC38-36C01 (IgG1 version)
[1]
  Kd: 5.77 nM
[2]
  EC50: 1.38 nM
[3]
  IC50: 1.17 nM
Cyno CD21 on CHO cells [4]
  IC50: 0.24 nM
Cyno CD21 on CHO cells [5]
  EC50: 0.05 nM
